These results are taken from article PMC11430019 (bioRxiv, 2024).

The target in assay [1] is HSV-2 gH ectodomain / gL heterodimeric complex (gH_(ecto)/gL) (HSV-2, UniProt P89445;P28278). Briefly: cryo-EM structure.
The target of assay [2] is HSV-2 gH ectodomain (gH_(ecto)) (HSV-2, UniProt P89445). Briefly: cryo-EM structure.
HSV-2 gH ectodomain (gH_(ecto)), sequence (P89445 19-803): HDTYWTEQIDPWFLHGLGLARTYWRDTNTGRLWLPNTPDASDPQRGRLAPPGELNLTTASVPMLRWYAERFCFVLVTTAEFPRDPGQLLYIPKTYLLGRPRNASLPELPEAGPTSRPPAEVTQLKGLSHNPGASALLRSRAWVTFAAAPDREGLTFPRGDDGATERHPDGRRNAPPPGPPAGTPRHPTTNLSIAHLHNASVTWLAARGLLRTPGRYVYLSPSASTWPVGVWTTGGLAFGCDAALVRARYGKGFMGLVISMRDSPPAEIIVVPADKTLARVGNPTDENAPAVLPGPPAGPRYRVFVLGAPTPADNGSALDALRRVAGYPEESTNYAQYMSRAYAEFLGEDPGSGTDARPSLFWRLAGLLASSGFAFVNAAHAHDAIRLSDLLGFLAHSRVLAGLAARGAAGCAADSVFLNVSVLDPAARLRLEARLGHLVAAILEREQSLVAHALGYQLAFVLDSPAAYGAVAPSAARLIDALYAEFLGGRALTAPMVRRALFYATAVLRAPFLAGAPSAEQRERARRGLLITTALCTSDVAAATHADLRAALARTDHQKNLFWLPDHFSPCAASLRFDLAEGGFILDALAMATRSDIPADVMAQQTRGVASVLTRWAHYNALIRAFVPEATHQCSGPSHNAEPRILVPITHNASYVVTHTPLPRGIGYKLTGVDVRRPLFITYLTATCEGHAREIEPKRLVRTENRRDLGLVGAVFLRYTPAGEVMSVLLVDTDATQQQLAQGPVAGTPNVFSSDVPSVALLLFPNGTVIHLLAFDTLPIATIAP

HSV-2 gH ectodomain / gL heterodimeric complex (gH_(ecto)/gL), sequence (P89445 19-803, chain 1 of 2): as the sequence (P89445 19-803) above
HSV-2 gH ectodomain / gL heterodimeric complex (gH_(ecto)/gL), sequence (P28278 17-224, chain 2 of 2): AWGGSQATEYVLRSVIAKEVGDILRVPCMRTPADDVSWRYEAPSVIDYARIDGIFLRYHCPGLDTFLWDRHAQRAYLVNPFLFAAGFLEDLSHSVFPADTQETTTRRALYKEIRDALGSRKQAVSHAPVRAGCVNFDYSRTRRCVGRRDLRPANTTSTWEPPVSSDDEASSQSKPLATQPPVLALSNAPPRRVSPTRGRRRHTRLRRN

B1: CHL27 Fab (Fab, V domains shown)
VH: QIQLVQSGPELKKPGETVKISCRASGYTFTDYSMHWVKQAPGKGLQWMGWIDTETGEPTYADDFKGRFAFSLETSAITAYLQINNLKNEDTATYFCARGLSPYWGHGTLVTVSA
VL: NIVMTQSPKSMSMSVGERVTLSCKASENVGSYVSWYQQKPEQSPKLLIYGASIRHTGVPDRFAGSGSATDFTLTISSVQAEDLAAYHCGQTYSSPYTFGGGTKLEIK
Regarding B1, the binding result in assay [1] and in assay [2] was “binds” each time.
